This note sets out measurements from US20040086941A1 (Takeda / Millennium, published 2004).

Assay [1] has as its target T1, human receptor protein SLT (hSLT) (human, UniProt Q969V1 1-340).
T1 construct: Full-length human SLT expressed in CHO dhfr- cells; also called human SLT; CHO/hSLT cells
The assay can be described thus: radioligand competition; [125I]-labeled MCH(4-19) on membrane fraction (30 ug/ml) of human SLT-expressing CHO cells, filtration. The method, then:
Receptor binding assay was performed using [¹²⁵I]-labeled MCH (4-19) prepared in REFERENCE EXAMPLE 3 using Bolton-Hunter reagent and the cell membrane fraction prepared from human SLT-expressing CHO cells.
The cell membrane fraction prepared from human SLT-expressing CHO cells according to EXAMPLE 6 was diluted at various concentrations with the assay buffer (50 mM Tris-HCl, 5 mM EGTA (ethyleneglycol-bis(aminoethylether) tetraacetic acid), 5 mM magnesium acetate, 0.05% CHAPS, 0.1% BSA (bovine serum albumin), 0.25 mM PMSF (phenylmethylsulfonyl fluoride), 1 μg/ml pepstatin, 20 μg/ml leupeptin, pH 7.4). A 200 μl aliquot of each dilution was then dispensed in a polypropylene testing tube (Falcon, Inc., 2053). Two μl of DMSO and 2 μl of 20 nM [¹²⁵I]-labeled MCH (4-19) were added to the membrane fraction solution to determine the amount of total binding (TB), and 2 μl of a solution of 100 μM MCH in DMSO and 2 μl of […] [¹²⁵I]-labeled MCH (4-19) were added thereto to determine the amount of non-specific binding (NSB). After reaction at 25° C. for 60 minutes, the reaction solution was filtered with suction through a polyethyleneimine-treated glass filter (Whatman Co., GF-F). Following the filtration, the radioactivity of [¹²⁵I]-labeled MCH (4-19) remaining on the filter paper was measured with a γ-counter.
As a result, the IC₅₀ value was approximately 20 nM (FIG. 4). […]

In assay [2] the target is T1, human receptor protein SLT (hSLT). The assay can be described thus: cell-based or functional assay.

Positions of bridges follow the written chain, without caps; N, C: chain ends. No end group written: not given here.

T1 sequence (Q969V1 whole entry): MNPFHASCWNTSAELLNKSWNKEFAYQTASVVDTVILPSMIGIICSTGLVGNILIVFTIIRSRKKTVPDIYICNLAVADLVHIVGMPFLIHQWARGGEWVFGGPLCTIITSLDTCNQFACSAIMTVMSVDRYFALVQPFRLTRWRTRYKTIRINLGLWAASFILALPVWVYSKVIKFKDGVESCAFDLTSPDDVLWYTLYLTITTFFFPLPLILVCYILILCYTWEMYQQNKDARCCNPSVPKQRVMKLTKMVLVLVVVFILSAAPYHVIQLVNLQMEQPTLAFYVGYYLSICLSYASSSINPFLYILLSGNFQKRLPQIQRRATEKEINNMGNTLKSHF

B1: Des-[Asp1, Phe2, Asp3]-MCH (MCH(4-19)) (peptide)
peptide: MLRCMLGRVYRPCWQV-OH
modifications: disulfide 4-13; N-terminus assumed
SMILES: CSCC[C@@H]1NC(=O)[C@@H](NC(=O)[C@H](CCCNC(=N)N)NC(=O)[C@H](CC(C)C)NC(=O)[C@@H](N)CCSC)CSSC[C@@H](C(=O)N[C@@H](Cc2c[nH]c3ccccc23)C(=O)N[C@@H](CCC(N)=O)C(=O)N[C@H](C(=O)O)C(C)C)NC(=O)[C@@H]2CCCN2C(=O)[C@H](CCCNC(=N)N)NC(=O)[C@H](Cc2ccc(O)cc2)NC(=O)[C@H](C(C)C)NC(=O)[C@H](CCCNC(=N)N)NC(=O)CNC(=O)[C@H](CC(C)C)NC1=O
notes: also called amino terminal-truncated form of MCH; N-terminal truncated form
In turn, B1 displayed an IC50 in assay [1] of 3.3 nM.

In assay [1], DFDMLRCMLGRVYRPCWQV (disulfide 7-16) [melanin-concentrating hormone, MCH (synthetic human MCH)] gave an IC50 of approximately 20 nM. Besides, the “release of [3H] arachidonic acid metabolite in human SLT-expressing CHO cells, EC50” value in assay [2] came to 0.57 nM.

The term IC50 denotes the concentration at which inhibition is half-maximal. Low values mean greater potency, high ones weaker potency.
